# Source: publication PMC7615196, “PIM1 controls GBP1 activity to limit self-damage and to guard against pathogen infection” (Science (New York, N.Y.), 2023)
# Residue numbers refer to the chain shown, from its start. Numbers in names are those of the source.
# T1: phosphorylated Flag-GBP1 (GBP1pS156) purified from THP-1ΔGBP1+Tet-Flag-GBP1 WT cells (human, UniProt P32455 1-592, phosphoserine at 156)
# T1 chain: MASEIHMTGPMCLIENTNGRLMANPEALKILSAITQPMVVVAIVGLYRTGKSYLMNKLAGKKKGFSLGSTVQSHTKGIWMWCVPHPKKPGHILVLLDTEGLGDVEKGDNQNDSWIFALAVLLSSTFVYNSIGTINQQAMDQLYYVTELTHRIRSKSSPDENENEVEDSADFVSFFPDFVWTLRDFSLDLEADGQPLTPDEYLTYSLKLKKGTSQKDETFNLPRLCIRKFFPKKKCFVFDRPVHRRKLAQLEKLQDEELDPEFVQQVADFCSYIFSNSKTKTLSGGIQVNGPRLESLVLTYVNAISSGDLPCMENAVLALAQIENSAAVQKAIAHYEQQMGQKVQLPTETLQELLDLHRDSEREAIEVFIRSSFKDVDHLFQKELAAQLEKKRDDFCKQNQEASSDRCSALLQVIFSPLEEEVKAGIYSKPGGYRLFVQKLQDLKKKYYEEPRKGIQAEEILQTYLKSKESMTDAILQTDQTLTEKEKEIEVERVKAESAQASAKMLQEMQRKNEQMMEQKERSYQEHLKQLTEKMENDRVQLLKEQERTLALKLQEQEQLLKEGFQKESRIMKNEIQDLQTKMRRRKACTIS
# T2: in vitro phosphorylated recombinant GBP1 (human, UniProt P32455 1-592, phosphoserine at 156 (GBP1pS156); Ser569 and Thr590 also identified as sites phosphorylated by PIM1 in vitro)
# T2 chain: T1 chain
# B1: HA-14-3-3η (natural protein)
# chain: MGDREQLLQRARLAEQAERYDDMASAMKAVTELNEPLSNEDRNLLSVAYKNVVGARRSSWRVISSIEQKTMADGNEKKLEKVKAYREKIEKELETVCNDVLSLLDKFLIKNCNDFQYESKVFYLKMKGDYYRYLAEVASGEKKNSVVEASEAAYKEAFEISKEQMQPTHPIRLGLALNFSVFYYEIQNAPEQACLLAKQAFDDAIAELDTLNEDSYKDSTLIMQLLRDNLTLWTSDQQDEEAGEGN
# B2: HA-14-3-3γ (natural protein)
# chain: MVDREQLVQKARLAEQAERYDDMAAAMKNVTELNEPLSNEERNLLSVAYKNVVGARRSSWRVISSIEQKTSADGNEKKIEMVRAYREKIEKELEAVCQDVLSLLDNYLIKNCSETQYESKVFYLKMKGDYYRYLAEVATGEKRATVVESSEKAYSEAHEISKEHMQPTHPIRLGLALNYSVFYYEIQNAPEQACHLAKTAFDDAIAELDTLNEDSYKDSTLIMQLLRDNLTLWTSDQQDDDGGEGNN
# B3: GBP1^S156A (Dox-inducible, THP-1ΔGBP1+GBP1^S156A cells) (natural protein, human, UniProt P32455 1-592, looked up)
# chain: T1 chain with S156A
# notes: pLenti-Tet-GBP1 mutated by site-directed mutagenesis; also called phosphodeficient GBP1; source: THP-1ΔGBP1+Tet-GBP1 S156A, Dox-induced, in lysate
# B4: GBP1^R151A/R153A/K155A (kinase motif mutant, Dox-inducible in THP-1ΔGBP1) (natural protein, human, UniProt P32455 1-592, looked up)
# chain: T1 chain with R151A, R153A, K155A
# notes: pLenti-Tet-GBP1 mutated by site-directed mutagenesis; source: THP-1ΔGBP1+Tet-GBP1 mutant, Dox-induced, in lysate
# B5: GBP1^R153A/P158A (14-3-3 binding motif mutant, Dox-inducible in THP-1ΔGBP1) (natural protein, human, UniProt P32455 1-592, looked up)
# chain: T1 chain with R153A, P158A
# notes: as for B4
# B6: recombinant 14-3-3σ (natural protein, human, UniProt P31947 1-248, looked up)
# chain: MERASLIQKAKLAEQAERYEDMAAFMKGAVEKGEELSCEERNLLSVAYKNVVGGQRAAWRVLSSIEQKSNEEGSEEKGPEVREYREKVETELQGVCDTVLGLLDSHLIKEAGDAESRVFYLKMKGDYYRYLAEVATGDDKKRIIDSARSAYQEAMDISKKEMPPTNPIRLGLALNFSVFHYEIANSPEEAISLAKTTFDEAMADLHTLSEDSYKDSTLIMQLLRDNLTLWTADNAGEEGGEAPQEPQS
# notes: 14-3-3σ (stratifin), ORF from cDNA of IFNγ-primed THP-1 WT cells via pLenti-Tet-14-3-3σ into pET15d-6xHis-3C; homodimer in the cryo-EM map; also called SFN; YWHAS; source: E. coli BL21, purified (Ni-NTA, 3C cleavage, reverse Ni-IMAC, SEC); not shown: His6, N-terminal, cleaved
# B7: HA-14-3-3β (natural protein)
# chain: MTMDKSELVQKAKLAEQAERYDDMAAAMKAVTEQGHELSNEERNLLSVAYKNVVGARRSSWRVISSIEQKTERNEKKQQMGKEYREKIEAELQDICNDVLELLDKYLIPNATQPESKVFYLKMKGDYFRYLSEVASGDNKQTTVSNSQQAYQEAFEISKKEMQPTHPIRLGLALNFSVFYYEILNSPEKACSLAKTAFDEAIAELDTLNEESYKDSTLIMQLLRDNLTLWTSENQGDEGDAGEGEN
# B8: HA-14-3-3ε (natural protein)
# chain: MDDREDLVYQAKLAEQAERYDEMVESMKKVAGMDVELTVEERNLLSVAYKNVIGARRASWRIISSIEQKEENKGGEDKLKMIREYRQMVETELKLICCDILDVLDKHLIPAANTGESKVFYYKMKGDYHRYLAEFATGNDRKEAAENSLVAYKAASDIAMTELPPTHPIRLGLALNFSVFYYEILNSPDRACRLAKAAFDDAIAELDTLSEESYKDSTLIMQLLRDNLTLWTSDMQGDGEEQNKEALQDVEDENQ
# B9: HA-14-3-3θ (natural protein)
# chain: MEKTELIQKAKLAEQAERYDDMATCMKAVTEQGAELSNEERNLLSVAYKNVVGGRRSAWRVISSIEQKTDTSDKKLQLIKDYREKVESELRSICTTVLELLDKYLIANATNPESKVFYLKMKGDYFRYLAEVACGDDRKQTIDNSQGAYQEAFDISKKEMQPTHPIRLGLALNFSVFYYEILNNPELACTLAKTAFDEAIAELDTLNEDSYKDSTLIMQLLRDNLTLWTSDSAGEECDAAEGAEN
# B10: HA-14-3-3ζ (natural protein)
# chain: MDKNELVQKAKLAEQAERYDDMAACMKSVTEQGAELSNEERNLLSVAYKNVVGARRSSWRVVSSIEQKTEGAEKKQQMAREYREKIETELRDICNDVLSLLEKFLIPNASQAESKVFYLKMKGDYYRYLAEVAAGDDKKGIVDQSQQAYQEAFEISKKEMQPTHPIRLGLALNFSVFYYEILNSPEKACSLAKTAFDEAIAELDTLSEESYKDSTLIMQLLRDNLTLWTSDTQGDEAEAGEGGEN
# How the values were obtained:
# [1] = target: recombinant GBP1 (non-phosphorylated) (human) (UniProt P32455); experiment: SEC; GBP1 dimerization: samples without nucleotide or incubated with 1 mM GTP or 1 mM GDP + 10 mM AlF3; free GBP1 or phosphorylated, 14-3-3σ-bound GBP1
# [2] = target: phosphorylated Flag-GBP1 (GBP1pS156) purified from THP-1ΔGBP1+Tet-Flag-GBP1 WT cells (human) (UniProt P32455); experiment: co-IP; semi-quantitative co-immunoprecipitation: purified phosphorylated Flag-GBP1 bound to Flag(M2)-agarose beads, incubated with different concentrations of purified HA-14-3-3 proteins for 1 hour at 4°C in 25 mM HEPES pH 7.3, 100 mM NaCl, 0.01% Triton X-100, 5% glycerol, 1 mM DTT; blots …
# 14-3-3σ = 14-3-3σ (UniProt P31947); experiment: co-IP of Flag-GBP1 and HA-14-3-3; settings: reference: wild type; sites S156
# 14-3-3η = 14-3-3η (UniProt Q04917); experiment: co-IP of Flag-GBP1 and HA-14-3-3; settings: reference: wild type; sites S156
# 14-3-3θ = 14-3-3θ (UniProt P27348); experiment: co-IP of Flag-GBP1 and HA-14-3-3; settings: reference: wild type; sites S156
# 14-3-3ε = 14-3-3ε (UniProt P62258); experiment: co-IP of Flag-GBP1 and HA-14-3-3; settings: reference: wild type; sites S156
# 14-3-3ζ = 14-3-3ζ (UniProt P63104); experiment: co-IP of Flag-GBP1 and HA-14-3-3; settings: reference: wild type; sites S156
# 14-3-3β = 14-3-3β (UniProt P31946); experiment: co-IP of Flag-GBP1 and HA-14-3-3; settings: reference: wild type; sites S156
# 14-3-3γ = 14-3-3γ (UniProt P61981); experiment: co-IP of Flag-GBP1 and HA-14-3-3; settings: reference: wild type; sites S156
# [3] = target: endogenous GBP1 (IFNγ-treated THP-1 cells) (human (endogenous in THP-1)) (UniProt P32455); experiment: cross-linking; GBP1 oligomerization assay: THP-1 cells (IFNγ±Dox; also ΔPIM1 or Δ14-3-3σ cells) lysed, GBP1 precipitated with CHAPS buffer, pellets cross-linked with 4 mM DSS for 30 minutes at room temperature, immunoblot
# [4] = target: T1, phosphorylated Flag-GBP1 (GBP1pS156) …; experiment: GBP1 phosphorylated at S156; semi-quantitative co-IP
# [5] = target: the molecule itself; experiment: cross-linking; GBP1 oligomerization assay: THP-1 cells (IFNγ±Dox; also ΔPIM1 or Δ14-3-3σ cells) lysed, GBP1 precipitated with CHAPS buffer, pellets cross-linked with 4 mM DSS for 30 minutes at room temperature, immunoblot
# [6] = target: T2, in vitro phosphorylated recombinant GBP1
# [7] = target: T2, in vitro phosphorylated recombinant GBP1; experiment: ITC; GBP1 phosphorylated at S156
# [8] = target: the molecule itself; experiment: cryo-EM structure; single particle cryo-EM of the SEC-purified phospho-GBP1:14-3-3σ complex; crystal structures docked as rigid bodies
molecule,measurement,setting,value
recombinant GBP1 (non-phosphorylated) (from UniProt P32455 1-592) (natural protein),stoichiometry N,[1],2
HA-14-3-3σ (from UniProt P31947 1-248) (natural protein),Kd,[2],0.37 µM
GBP1 (from UniProt P32455) S156A,binding against the reference,14-3-3σ,lost
same,binding against the reference,14-3-3η,lost
same,binding against the reference,14-3-3θ,lost
same,binding against the reference,14-3-3ε,lost
same,binding against the reference,14-3-3ζ,lost
same,binding against the reference,14-3-3β,lost
same,binding against the reference,14-3-3γ,lost
endogenous GBP1 (IFNγ-treated THP-1 cells) (from UniProt P32455 1-592) (natural protein),stoichiometry N,[3],2
B1,Kd,[4],6.43 µM
B2,Kd,[4],4.2 µM
B3,stoichiometry N,[5],2
B4,stoichiometry N,[5],2
B5,stoichiometry N,[5],2
B6,"GTPase activity assay (rate of GTP hydrolysis, free phosphate by Malachite Green), 2 μM purified GBP1:14-3-3σ complex compared to free GBP1",[6],> 8 fold
same,Kd,[7],0.4 µM
same,stoichiometry N,[8],2
B7,Kd,[4],2.31 µM
B8,Kd,[4],1.86 µM
B9,Kd,[4],1.73 µM
B10,Kd,[4],1.12 µM
